Measured values: publication PMC10250827
*1 amine or outer side, *2 acyl side, *3 side chain or, on linkers, in order; H or OH if unused. Glutaryl = O=C(CCCC(=O)[*:2])[*:1]; Suc = O=C(CCC(=O)[*:2])[*:1]

B1: CHP-027, pre-cyclic peptidomimetic CO-(CH2)3-CO2H KTGDEK-K-GG-…-NH2 (peptide)
peptide: Glutaryl-KTGDEKKGGYGRKKRRQRRR-NH2
SMILES: C[C@@H](O)[C@H](NC(=O)[C@H](CCCCN)NC(=O)CCCC(=O)O)C(=O)NCC(=O)N[C@@H](CC(=O)O)C(=O)N[C@@H](CCC(=O)O)C(=O)N[C@@H](CCCCN)C(=O)N[C@@H](CCCCN)C(=O)NCC(=O)NCC(=O)N[C@@H](Cc1ccc(O)cc1)C(=O)NCC(=O)N[C@@H](CCCNC(=N)N)C(=O)N[C@@H](CCCCN)C(=O)N[C@@H](CCCCN)C(=O)N[C@@H](CCCNC(=N)N)C(=O)N[C@@H](CCCNC(=N)N)C(=O)N[C@@H](CCC(N)=O)C(=O)N[C@@H](CCCNC(=N)N)C(=O)N[C@@H](CCCNC(=N)N)C(=O)N[C@@H](CCCNC(=N)N)C(N)=O
B2: CHP-028, pre-cyclic peptidomimetic CO-(CH2)2-CO2H KTGDEK-K-GG-…-NH2 (peptide)
peptide: Suc-KTGDEKKGGYGRKKRRQRRR-NH2
SMILES: C[C@@H](O)[C@H](NC(=O)[C@H](CCCCN)NC(=O)CCC(=O)O)C(=O)NCC(=O)N[C@@H](CC(=O)O)C(=O)N[C@@H](CCC(=O)O)C(=O)N[C@@H](CCCCN)C(=O)N[C@@H](CCCCN)C(=O)NCC(=O)NCC(=O)N[C@@H](Cc1ccc(O)cc1)C(=O)NCC(=O)N[C@@H](CCCNC(=N)N)C(=O)N[C@@H](CCCCN)C(=O)N[C@@H](CCCCN)C(=O)N[C@@H](CCCNC(=N)N)C(=O)N[C@@H](CCCNC(=N)N)C(=O)N[C@@H](CCC(N)=O)C(=O)N[C@@H](CCCNC(=N)N)C(=O)N[C@@H](CCCNC(=N)N)C(=O)N[C@@H](CCCNC(=N)N)C(N)=O

Assays:
[1] = molecular target: Heat shock protein 90 (Hsp90), protein immobilised on the FEB chip (UniProt P07900); test: field effect biosensing
[2] = molecular target: Heat shock protein 90 (Hsp90), protein immobilised on the FEB chip (UniProt P07900); test: field effect biosensing; remark: listed apart in the source

| Molecule | KD in the presence of CHP-028 (competitive binding) [1] [µM] | Kd [2] [µM] |
| --- | --- | --- |
| Cell division cycle 37 (Cdc37), analyte protein in FEB (from UniProt Q16543 1-378) (natural protein) | 2.78 | – |
| Ac-KTGDEKKGGYGRKKRRQRRR-NH2 [CHP-026, linear peptide CH3-CO-KTGDEK-K-GG-…-NH2] | – | 342 |
| B1 | – | 30 |
| B2 | – | 16.4 |
